{"source": "paper doi:10.1101/2025.09.24.25335646", "about": "(medRxiv, 2025)", "key": {"[1]": {"target": "A/New York/631/1996 H3N2 hemagglutinin head domain (HA1 43-309) (Influenza A virus A/New York/631/1996 …, strain)", "assay": "crystal structure"}, "[2]": {"target": "A/California/07/2009 H1N1 hemagglutinin, recombinant HA used for negative-stain EM (Influenza A virus A/California/07/2009 …, UniProt C3W5X2, strain)", "assay": "negative-stain EM"}}, "data": [{"binder": "Fab 3_H2 (Fab, V domains shown) VH: QGTLKESGPAMVKPTQTLTLTCTFSGFSLDTSGMCVAWIRQPPGKALEWLALFDWDNNKYYSPSLKTRLNMSKGRSRNQVVLTMTNMDPVDTGTYYCARKVYGSFYYGMDVWGQGTTVTVSS VL: DIVLTQSPATLSLSPGDSATLSCRASQDVSANLAWYQQKPGQAPRLVIYDATNRATGIPARFSGSGLGTDFTLTISSLEPEDFAVYYCQQRSNWPPVYTFGQGTKLEIK", "values": [{"measurement": "binding result", "setting": "[1]", "result": "binds"}]}, {"binder": "3_H2 monoclonal antibody (IgG1) (antibody, V domains shown) VH: QGTLKESGPAMVKPTQTLTLTCTFSGFSLDTSGMCVAWIRQPPGKALEWLALFDWDNNKYYSPSLKTRLNMSKGRSRNQVVLTMTNMDPVDTGTYYCARKVYGSFYYGMDVWGQGTTVTVSS VL: DIVLTQSPATLSLSPGDSATLSCRASQDVSANLAWYQQKPGQAPRLVIYDATNRATGIPARFSGSGLGTDFTLTISSLEPEDFAVYYCQQRSNWPPVYTFGQGTKLEIK", "values": [{"measurement": "binding result", "setting": "[2]", "result": "binds"}]}, {"binder": "Fab 49_C09 (Fab, V domains shown) VH: QSTLKESGPTLVKPTETLTLTCTFSGFSLHTSGVGVGWIRQPPGKALECLALIYWNDDARYSPSLQSRLTITKDTSKNQVVLTMSNMDPVDTATYYCAHKGGGRDGYNSAAFDVWGQGTMVTVSS VL: SYVLTQPPSVSVAPGQTARIPCGGNNIGMKTVHWYQQRPGQAPVVVVYDDSRRPSGIPERFSGSNSGNTATLTISRVEAGDEADYYCQVWDSSVNHWVFGGGTKLTVL", "values": [{"measurement": "binding result", "setting": "[1]", "result": "binds"}]}, {"binder": "49_C09 monoclonal antibody (IgG1) (antibody, V domains shown) VH: QSTLKESGPTLVKPTETLTLTCTFSGFSLHTSGVGVGWIRQPPGKALECLALIYWNDDARYSPSLQSRLTITKDTSKNQVVLTMSNMDPVDTATYYCAHKGGGRDGYNSAAFDVWGQGTMVTVSS VL: SYVLTQPPSVSVAPGQTARIPCGGNNIGMKTVHWYQQRPGQAPVVVVYDDSRRPSGIPERFSGSNSGNTATLTISRVEAGDEADYYCQVWDSSVNHWVFGGGTKLTVL", "values": [{"measurement": "binding result", "setting": "[2]", "result": "binds"}]}]}
